Where “and” joins values, the source holds several entries; their conditions need not be identical. Identical values can stand only once.
Test system: HEK293T
Experiment: median enrichment of reporter reads in eGFP-reduced (low/intermediate) vs eGFP-high sorted cells (eGFP-extension fusion abundance) (ratio); higher = stronger loss of eGFP-fusion protein abundance (more destabilising extension)
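Also: lentiviral eGFP-IRES-mCherry reporter pool sorted by FACS 96 h post-transduction, gated on mCherry-high cells, Illumina read counts normalized per million, median across four biological replicates.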

First: ESYNHMQLWDRSLVLGTIHTHTPSLCLWLTSQKTLVNDHSRILTRIHVTDLTQ [CPAMD8]
Second: ETGPTHHSPSPSISTWCLVPVHSVNKKP [KLK11]
The median enrichment of the first is higher: 15.9 for the first, 2.42 for the second.

Compared with ETLNILSLIFN [POLK], ETSGFSSQTF [ELP5] is lower in median enrichment: 8.07 for the first, 0.462 for the second.

First: ETSSGQNRRVPNYVLKP [SLC10A2]
Second: EVDV [PRKCB]
The median enrichment of the first is higher: 0.355 for the first, 0.313 for the second.

Going from EVGQPLMSWFLQLSFPLGCIEGFS [RAG1] to “EVGVRSPYSACCPGCAAQLDSASQHLPPRSFLLFIPIFTPKTSLSLFTPPKPLSHAGPLKPQLPTILREHPLPSLPFPALKPA [GSTM2]”, the median enrichment falls from 6.39 to 5.73.

First: EVHTVCHRMAHVIAHFCVDMVLV [ATP5IF1]
Second: EVKGSIQVLHLVLPCLLSDHSDGLMWLLMWNCRRVQRRVCNKAIGKHTGAFPSPSGPRPLSKLDNFLLSCLFPALKLKQEIFW [HS3ST3B1]
The median enrichment of the first is higher: 11 for the first, 9.3 for the second.

Going from EVNV [CLEC2B] to “EVQPACSCIQKPATTQPISACAYPDKKTKIPLGKTQALTLLFKWPLQKV [TPD52L1]”, the median enrichment rises from 0.328 to 13.

Compared with EYKLS [UBA6], EYPRFKKRT [PPP2R1B] is higher in median enrichment: 0.363 for the first, 1.16 for the second.

Compared with FFF [Phe03], FFFF [Phe04] is higher in median enrichment: 5.17 for the first, 9.4 for the second.

First: FFFFF [Phe05]
Second: FFFFFF [Phe06]
The median enrichment of the first is lower: 7.46 for the first, 9.02 for the second.

Going from FFFFFFF [Phe07] to FFFFFFFF [Phe08], the median enrichment rises from 7.66 to 9.45.

Compared with FFFFFFFFF [Phe09], FFFFFFFFFF [Phe10] is lower in median enrichment: 9.48 for the first, 7.03 for the second.

Compared with “FGHSRTGERQLYFSLGQLQRVGQALMGSDCQSDAVGPRQRKAGRRGARTFSPHCPFPFSGEHRRLLTPTSCEAVAYGVQRSWS [C16orf58]”, “FILERNSTNVKNVTKLLSISLTLLHIRKFILEKNPTDVKNVAKPLSTPLNLLHIRDFILERNPTDVNNVVKLFTYPHTLLHIR [ZNF626]” is higher in median enrichment: 4.42 for the first, 8.24 for the second.

First: FLELKHPRMPLHVFHSPHLQTSLLFLTRPESKLPSLGNSGEGVSCTTYHTPSHPVSDFGMDSGKLGPSLNRVMYLNVCYFQPP [HSPA1L]
Second: FLGTHSHAHCRSINSNPHFRPKIMRPHLVSTFPRPCSKPNPFLPSGSQNLLSPTATTVLPDFSHSNHSRPAMGNRPSPSVLVK [RNF39]
The median enrichment of the first is higher: 6.57 for the first, 4.59 for the second.

Compared with FLQRTALIFRFKRLPTR [Degron UPS], “FPPPPSSGSPRSNVPPATFPLWPPAELICLSHRSWCLPLHRSLNAATLAGSRWKLVEGPCQVTAMLSLSRHGPGSFRHIQILH [S100A7A]” is higher in median enrichment: 6.83 for the first, 8.52 for the second.

First: GAAPQAGVEPDLGTKD [ZNF688]
Second: GACFAVGHPAKQANMETTCNLARLYLV [DDX3X]
The median enrichment of the first is lower: 0.378 for the first, 17.6 for the second.

Compared with “GAFFLEEESENFQTTAADSALMGCWLIGVLSMGDWNFFFV [ZNHIT6]”, “GAHPKYACHLRPQAGHTGQPACRQDLPASSSQYSLQRLKCEAPAPPSALQPTGPGRTCPLSVSPSRVPRWRPLSTG [PAK6]” is lower in median enrichment: 8.19 for the first, 3.28 for the second.

First: GAMLPSSSSPPSTGWDRRQVPAHACLRLFPPLGQALGWKLGS [ADCYAP1R1]
Second: GANASRAAVNLCKD [BDKRB2]
The median enrichment of the first is higher: 9.03 for the first, 0.298 for the second.

First: GAPPPGWTGAWLPSSFLPWLPEETPLTQPAWALTTNTLGHGQPAQDRLPALGHCAPISVLGLGSS [TTYH1]
Second: GCGLNCRLTK [MYO16]
The median enrichment of the first is higher: 15.2 for the first, 0.777 for the second.

Going from GCM [BET1] to GCVLSQIYLLD [HYPK], the median enrichment rises from 0.417 to 11.9.

First: GEKSYKCKECGKPLDDPQTLMNMRKFIL [ZNF141]
Second: GEVLPGPRRGDREHHCHPGEPGAGAPGACRLRQGRCGRDDAALGCGVGSPKHPRQQPRPWPHQWHRGAPATGWPSGQPEHQGH [DECR2]
The median enrichment of the first is higher: 6.09 for the first, 0.598 for the second.

First: GFHSRGCCKQRDCHLELGWQGRAASFDSESSCPSPKPPPTP [SYT6]
Second: GGAAAAWSLRPSRPPSAAPSAAVCVAWASFQLTHGLKNRCFI [TMEM18]
The median enrichment of the first is lower: 0.961 for the first, 5.44 for the second.

First: GGAVAANTPASGLLVAAPGDTPAKPTRWRGPPWSLATLPASAQGPLPSPGHLLCRRHSSQKPLSQKRLVFKKSRFFAPEVSFR [AP1M1]
Second: GGCRRRPSWCRQAGHRDPGPAQETAFFSRYNRRQKKRVPPLPNRSFWQGVPNAKTQRCGWHLLPHSFKIVKKC [FOXF1]
The median enrichment of the first is lower: 5.45 for the first, 9.48 for the second.

Compared with “GGEERRADLGRALRTWPRARDSPGSSSPWQAQQHVPQIWKGLPLCQCLGGCHGCPHPLLSVCGVEEPTPASCQDHLGGHTPAK [GPRC5C]”, GGFFC [GBP7] is lower in median enrichment: 0.687 for the first, 0.518 for the second.

Going from GGG [Gly03] to GGGG [Gly04], the median enrichment rises from 1.62 to 5.17.

Going from GGGGG [Gly05] to GGGGGG [Gly06], the median enrichment rises from 1.79 to 2.43.

First: GGGGGGG [Gly07]
Second: GGGGGGGG [Gly08]
The median enrichment of the first is higher: 2.97 for the first, 1.64 for the second.

First: GGGGGGGGG [Gly09]
Second: GGGGGGGGGG [Gly10]
The median enrichment of the first is lower: 3.85 for the first, 11.7 for the second.

Compared with “GGGGQVTRSGLSFWGCRSTEPLTPVCPRSPNRCGSSSERLSVQAMGQDRKVPELGKPGCNFLLHPAPPEVLRRVFLGIVFCSC [JUP]”, GGGSRSDQLIAHMLCLDME [HNRNPAB] is lower in median enrichment: 5.66 for the first, 3.08 for the second.

Going from GGGTGLTF [CARS] to “GGLLALTLQPTLAVWPSPGSFPAPLPLFPVLLNSPSWRVQALGMGGTRPHSFHRALRPDTADQPHSAQEAASGVGAQRGTAAS [BAP1]”, the median enrichment rises from 0.299 to 5.39.

First: GGLLPLGPLTLSGWWTTKYNPVYNLKIYFTFVLLYLFIKG [SMAD4]
Second: GGLLSVLGTPGPYRTRAAALSHPLGRRYGSSVPLASMWSGGDAAPVVGTSWGDPRPSLAGLSPVPISHSGPRADILIK [GUK1]
The median enrichment of the first is higher: 5.18 for the first, 2.98 for the second.

Going from “GGPMGMSMAQPSYTPPQMTPHPTQLRHGPPMHSYLPSHPHHPAMMMHGGPPTHPGMTMSAQSPTMLNSVDPNVGGQVMDIHAQ [MEIS2]” to GGPSV [NDUFV3], the median enrichment falls from 2.36 to 0.139.

First: GGQCLPAPPLASSSAPRVPSVDPIRPAMASYSKMV [ACO2]
Second: GGQVAEGSGCRLLYPLCLKHPPHRALVFTRFVLDSLNGNRIPWLRAKTTTYQCPCPFQLTLSSLRSSLSLWKGHPSQGRNAWS [SLC13A5]
The median enrichment of the first is lower: 0.291 for the first, 8.48 for the second.

Going from GGR [RGS21] to “GGRACTGATQPGLGAASPQPPRAKNLFIKECFGTL [LMNA]”, the median enrichment rises from 0.868 to 17.9.

First: GGRVGHPKR [ZNF786]
Second: GGTPEKMPGLIVPPQDMDSMWGQEGYLLPGKAISSSPVWGGMRPAPLVNTPFPRSSLPVLGGS [CIC]
The median enrichment of the first is lower: 0.607 for the first, 6.48 for the second.

Compared with “GHACLPNTIWSWTTFDTNQSYWTRPLEDLKYTSHAVVYLGCDSLSNAALGKDESDLQGEKCNHTWAPVNYGTEGPNCSPKGAA [APOBEC2]”, “GHAQAMNPQLSQMADRWSPAPIATCNSEKISLVTDQCHGGAC [SHISA3]” is lower in median enrichment: 3.91 for the first, 1.98 for the second.

First: GHPQDTPMWLLDNPRAAKSCFSSLAPQVLQDRALKATPNEFSGFRLWLQPNRTHFEHPDCIFAFRKLE [C5orf46]
Second: GHPTPVPWRGSGPTLHNCLSRTVQTKGPAWKE [SLC37A1]
The median enrichment of the first is higher: 3.29 for the first, 2.83 for the second.

Compared with GHSPLLVPH [TP53], GIIIISTCPQFLSQSPSILTCTHSDAD [TCHHL1] is higher in median enrichment: 0.449 for the first, 3.49 for the second.

First: GISVSSLISGIFVDKIRRNSCNF [KATNAL1]
Second: GKSPVSQHRGAALHTCGETFPAGPRESDSKNNRCCFSRVM [HABP4]
The median enrichment of the first is lower: 2.39 for the first, 8.99 for the second.

Going from “GLKFCKVLRGPEHVSATRGSGQHCVLRLVSYLRLPSICVQRPRLQPSQHSAGSHAPCPHPGQQTPARVCAPSDCTPALITHRH [SLC29A4]” to GLLPVDEVSFL [ABCC5], the median enrichment falls from 5.42 to 0.739.

First: GLPPWSLNPAPTSCLFS [PRDM10]
Second: GLPS [TMEM107]
The median enrichment of the first is higher: 5.78 for the first, 0.716 for the second.

Compared with GMSFLDLH [LSM5], GMSVVSCLQTPSPAQFI [SAMHD1] is higher in median enrichment: 0.489 for the first, 1.45 for the second.

Going from “GNHGARAARCVQRRAHRHHPHPDQPAYRGARAPLPEAAQGHQR [UCKL1]” to GNWD [PIK3C3], the median enrichment falls from 0.821 to 0.441.

Going from GPPSTSQQQD [DENND5A] to “GPWDTAFSFARLSACRPGGEPGPANESLVYLGCNSLKVQSFGLQSCPGPGSPGHCCSPRPWALVFLQHHTCCPFSISVCVKGD [MYO1F]”, the median enrichment rises from 0.577 to 5.6.

Compared with “GQRQRVLPKPLLPLWMLSLTLTHHCASLQTPRAQDWARPRDSHPFPSWEELACLATDSVSSNWLKWALPRVQLCGFYHA [IQGAP3]”, “GRCSDASAGAGTPNPWLQNRDPHPDRGSSAFEGFQAGLCGTEAQRGPGTWQRWGREEIQLPSLLPLLLQVPSNQELYILLVPQ [CCDC86]” is lower in median enrichment: 15.7 for the first, 5.26 for the second.

First: GRGMASGREGGIVGGQGSGFGSRWEQGLVKLFVSGPQ [PAQR7]
Second: GRNQQSTSAGQQPREPLPTRIAGSVTEQAG [ETV6]
The median enrichment of the first is higher: 12.5 for the first, 4.01 for the second.

First: GRRADSLAAPVLSPAILPYQGHWPLPSLCEGYFL [CYP2C18]
Second: GRRWCFRTLSHSLPSSALCHSQPFQQPRQPLLRPFPQPDTHSH [AMOTL2]
The median enrichment of the first is higher: 17 for the first, 12.3 for the second.

Going from GRTRRFNRASVVSPVGLQKSGAFAICLK to “GSGLCLVLSLPGRCSTPYRGGQLRAWAASSWTQLSRSSCSAQGGHMSEPRSWTSTQEDASEGKEIFYGLRPECQY [KLRG2]”, the median enrichment falls from 10.9 to 7.23.

Going from GSGP [LCE1D] to “GSPLCLGLLLPREFSPLTYPHLSGLTGRNHCTTERGWDGPASCLWEKTSCLGRGLCLVKVPTGNP [ITGAX]”, the median enrichment rises from 0.314 to 5.38.

Going from “GSRGRGGESPPRPPLPSPPGSRGSGLGRLPIPLLQAALIPHRN [FBXO46]” to GSSC [KRTAP13-1], the median enrichment falls from 5.21 to 0.297.

Going from “GSSTETGASSSSLGCGPSSRTRTSATSRASWRAWASARAASSLTASAASSAA [CCM2L]” to GSVQGFLGPSCLS [KCNA10], the median enrichment falls from 13.6 to 0.463.

Going from GSYISPSIRGHTQESNFALLQALVEAA [ZNF337] to “GTHNLHLSGYYYRFLHAQSRRIWTQMVTITSWPTNKKVLTML [ZNF717]”, the median enrichment falls from 9.72 to 7.8.

First: GTLTV [ABCB1]
Second: GTQSSLLAVDFPLLLEPPIKEIQRDSCRPEAEHTFMAGALRGVLDPAPGDTIHFYCFVVTRALQPVFLKNQGPLPPPLPWGET [PLOD1]
The median enrichment of the first is lower: 0.767 for the first, 6.78 for the second.

“GTSLALLTHPRNTISGTRAAPRTRGYSRHNLIERAPAALTSTAFDTYASLVLLLSSESSCAHAFSRMGSPLAVAASVLALASS [KIAA1522]” showed a median enrichment of 6.48.

With FANCD2 the median enrichment was 5.79 and 4.35.
